According to paper PMC3461841 (Journal of molecular biology, 2012):
Values belong to the binder of their own block, whether it stands above or below them.

Tests used:
[1] = target: T1, human Dicer C-terminal fragment (hDcr-C: 1235-1922), bacterially expressed (human, UniProt Q9UPY3 1235-1922); test: SEC
T1 sequence (looked up): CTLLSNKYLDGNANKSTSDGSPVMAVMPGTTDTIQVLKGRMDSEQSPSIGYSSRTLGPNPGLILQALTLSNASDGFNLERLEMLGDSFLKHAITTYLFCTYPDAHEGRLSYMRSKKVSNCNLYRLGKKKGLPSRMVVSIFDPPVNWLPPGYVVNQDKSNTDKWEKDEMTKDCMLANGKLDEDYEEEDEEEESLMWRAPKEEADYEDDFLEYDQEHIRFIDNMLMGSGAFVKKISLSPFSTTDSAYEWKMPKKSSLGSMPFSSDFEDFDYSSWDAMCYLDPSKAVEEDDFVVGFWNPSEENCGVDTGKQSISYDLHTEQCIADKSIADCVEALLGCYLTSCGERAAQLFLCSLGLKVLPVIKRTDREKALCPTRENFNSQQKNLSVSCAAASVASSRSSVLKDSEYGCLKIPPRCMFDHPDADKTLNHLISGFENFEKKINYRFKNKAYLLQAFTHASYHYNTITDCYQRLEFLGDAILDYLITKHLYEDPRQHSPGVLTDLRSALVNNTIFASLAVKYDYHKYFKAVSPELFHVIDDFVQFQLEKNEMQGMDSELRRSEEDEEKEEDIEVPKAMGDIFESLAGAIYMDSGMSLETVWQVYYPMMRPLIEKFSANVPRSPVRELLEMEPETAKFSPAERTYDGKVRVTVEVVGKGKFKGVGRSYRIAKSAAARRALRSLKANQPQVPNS

DP (DUF283-PAZ) = target: T2, DP (DUF283-PAZ) (Homo sapiens, UniProt Q9UPY3 605-1068); test: filter binding
T2 sequence: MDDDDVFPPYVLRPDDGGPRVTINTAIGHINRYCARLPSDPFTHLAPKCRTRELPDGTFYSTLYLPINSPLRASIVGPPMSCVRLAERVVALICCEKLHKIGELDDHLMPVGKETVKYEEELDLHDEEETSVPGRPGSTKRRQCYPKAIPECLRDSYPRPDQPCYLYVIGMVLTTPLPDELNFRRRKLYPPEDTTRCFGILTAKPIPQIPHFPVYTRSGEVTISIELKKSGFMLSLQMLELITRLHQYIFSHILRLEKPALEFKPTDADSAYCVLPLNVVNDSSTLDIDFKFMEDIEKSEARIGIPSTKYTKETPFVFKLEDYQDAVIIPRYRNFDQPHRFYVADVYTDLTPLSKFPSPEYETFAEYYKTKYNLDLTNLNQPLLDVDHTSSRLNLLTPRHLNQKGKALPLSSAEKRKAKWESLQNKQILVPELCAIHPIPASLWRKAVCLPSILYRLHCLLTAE

MBP-ATPase/hel = target: T3, MBP-ATPase/hel (Homo sapiens, UniProt Q9UPY3 1-604); test: filter binding
T3 sequence: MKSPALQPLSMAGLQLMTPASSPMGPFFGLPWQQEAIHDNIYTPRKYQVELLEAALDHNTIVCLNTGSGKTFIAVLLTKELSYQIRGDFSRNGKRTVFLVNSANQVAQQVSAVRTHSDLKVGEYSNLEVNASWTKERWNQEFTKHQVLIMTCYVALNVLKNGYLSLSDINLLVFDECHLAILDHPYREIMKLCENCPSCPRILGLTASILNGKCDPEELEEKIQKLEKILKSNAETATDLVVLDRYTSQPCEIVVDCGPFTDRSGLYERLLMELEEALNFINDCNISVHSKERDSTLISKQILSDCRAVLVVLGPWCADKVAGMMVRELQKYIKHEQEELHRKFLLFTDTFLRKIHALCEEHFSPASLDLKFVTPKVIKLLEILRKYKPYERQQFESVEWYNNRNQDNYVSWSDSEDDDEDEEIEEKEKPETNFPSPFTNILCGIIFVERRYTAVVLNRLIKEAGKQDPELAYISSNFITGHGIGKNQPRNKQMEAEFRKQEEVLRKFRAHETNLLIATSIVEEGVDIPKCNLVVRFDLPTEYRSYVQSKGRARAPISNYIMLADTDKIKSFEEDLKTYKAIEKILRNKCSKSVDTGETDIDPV

[2] = target: T4, hDcr-C (RNase IIIa, IIIb, dsRBD) (Homo sapiens, UniProt Q9UPY3 1235-1922); test: filter binding
T4 sequence: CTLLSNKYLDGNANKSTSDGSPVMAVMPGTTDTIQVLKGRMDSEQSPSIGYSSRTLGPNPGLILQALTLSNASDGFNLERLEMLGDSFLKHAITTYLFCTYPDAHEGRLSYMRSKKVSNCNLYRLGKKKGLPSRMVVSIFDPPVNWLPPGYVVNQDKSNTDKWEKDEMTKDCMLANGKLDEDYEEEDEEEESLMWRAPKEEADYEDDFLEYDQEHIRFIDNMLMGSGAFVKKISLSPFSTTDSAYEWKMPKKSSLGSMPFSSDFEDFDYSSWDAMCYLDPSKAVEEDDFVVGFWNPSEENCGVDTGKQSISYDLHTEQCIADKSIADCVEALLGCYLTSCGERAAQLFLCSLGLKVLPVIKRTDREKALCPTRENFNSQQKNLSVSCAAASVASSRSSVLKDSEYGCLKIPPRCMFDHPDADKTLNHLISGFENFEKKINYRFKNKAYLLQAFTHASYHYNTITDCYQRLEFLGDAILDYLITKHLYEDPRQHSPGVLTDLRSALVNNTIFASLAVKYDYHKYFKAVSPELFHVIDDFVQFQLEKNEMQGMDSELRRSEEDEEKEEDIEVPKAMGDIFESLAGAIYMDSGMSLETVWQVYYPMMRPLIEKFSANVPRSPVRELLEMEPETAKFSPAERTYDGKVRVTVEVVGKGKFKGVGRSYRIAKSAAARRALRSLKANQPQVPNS

[3] = target: FL-hDicer (full-length human Dicer) (Homo sapiens, UniProt Q9UPY3 1-1922); test: filter binding
Sequence of FL-hDicer (full-length human Dicer) (Q9UPY3 whole entry, the tested form may be a part): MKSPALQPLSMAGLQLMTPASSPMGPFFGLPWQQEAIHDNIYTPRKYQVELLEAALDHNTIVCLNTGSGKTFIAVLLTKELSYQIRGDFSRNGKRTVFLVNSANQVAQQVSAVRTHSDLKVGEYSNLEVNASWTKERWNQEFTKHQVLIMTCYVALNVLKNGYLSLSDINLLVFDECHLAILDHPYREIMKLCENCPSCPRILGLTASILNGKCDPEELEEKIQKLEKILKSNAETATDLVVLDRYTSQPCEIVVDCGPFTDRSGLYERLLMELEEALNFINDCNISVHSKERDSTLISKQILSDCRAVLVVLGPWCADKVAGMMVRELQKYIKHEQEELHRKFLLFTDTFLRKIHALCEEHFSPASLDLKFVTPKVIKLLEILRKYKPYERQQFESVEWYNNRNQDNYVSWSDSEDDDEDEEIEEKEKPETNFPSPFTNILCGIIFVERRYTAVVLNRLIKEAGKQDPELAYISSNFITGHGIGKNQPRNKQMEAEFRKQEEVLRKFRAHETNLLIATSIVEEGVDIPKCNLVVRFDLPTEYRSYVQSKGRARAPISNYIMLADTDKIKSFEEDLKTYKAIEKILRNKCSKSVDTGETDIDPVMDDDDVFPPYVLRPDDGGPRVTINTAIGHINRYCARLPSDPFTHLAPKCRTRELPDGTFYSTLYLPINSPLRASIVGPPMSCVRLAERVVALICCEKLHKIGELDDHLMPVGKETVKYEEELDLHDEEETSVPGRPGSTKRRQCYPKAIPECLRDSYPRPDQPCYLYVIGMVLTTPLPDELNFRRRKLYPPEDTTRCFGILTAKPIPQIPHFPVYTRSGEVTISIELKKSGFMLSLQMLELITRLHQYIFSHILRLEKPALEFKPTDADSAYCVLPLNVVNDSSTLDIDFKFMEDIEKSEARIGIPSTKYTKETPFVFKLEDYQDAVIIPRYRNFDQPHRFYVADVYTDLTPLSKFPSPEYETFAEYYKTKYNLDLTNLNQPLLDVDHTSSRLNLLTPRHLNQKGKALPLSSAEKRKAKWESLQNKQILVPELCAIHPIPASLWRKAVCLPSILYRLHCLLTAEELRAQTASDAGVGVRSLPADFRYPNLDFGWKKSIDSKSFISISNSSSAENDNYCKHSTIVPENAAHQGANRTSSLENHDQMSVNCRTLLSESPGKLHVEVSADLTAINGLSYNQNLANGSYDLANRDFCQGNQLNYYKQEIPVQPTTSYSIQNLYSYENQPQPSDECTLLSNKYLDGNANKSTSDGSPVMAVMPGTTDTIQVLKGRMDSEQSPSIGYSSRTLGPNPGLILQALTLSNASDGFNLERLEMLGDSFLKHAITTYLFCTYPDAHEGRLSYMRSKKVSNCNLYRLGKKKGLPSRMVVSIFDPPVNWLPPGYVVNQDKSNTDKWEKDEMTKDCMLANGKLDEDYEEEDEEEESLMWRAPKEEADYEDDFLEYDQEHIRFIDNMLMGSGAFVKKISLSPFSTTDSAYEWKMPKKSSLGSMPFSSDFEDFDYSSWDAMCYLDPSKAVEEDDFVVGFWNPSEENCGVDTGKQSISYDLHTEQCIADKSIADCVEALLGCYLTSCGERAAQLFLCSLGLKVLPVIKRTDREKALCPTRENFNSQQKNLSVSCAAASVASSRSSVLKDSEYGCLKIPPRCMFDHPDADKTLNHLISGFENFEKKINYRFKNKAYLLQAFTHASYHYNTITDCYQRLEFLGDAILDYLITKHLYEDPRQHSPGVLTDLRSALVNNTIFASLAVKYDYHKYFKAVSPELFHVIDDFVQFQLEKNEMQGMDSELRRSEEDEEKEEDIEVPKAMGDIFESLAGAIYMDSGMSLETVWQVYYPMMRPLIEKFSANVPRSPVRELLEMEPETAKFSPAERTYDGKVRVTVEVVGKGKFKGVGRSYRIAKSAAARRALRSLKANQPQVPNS

[4] = target: T5, ATPase/helicase domain of human Dicer (1-604) fused with maltose-binding protein (human, UniProt Q9UPY3 1-604); test: SEC
T5 sequence (looked up): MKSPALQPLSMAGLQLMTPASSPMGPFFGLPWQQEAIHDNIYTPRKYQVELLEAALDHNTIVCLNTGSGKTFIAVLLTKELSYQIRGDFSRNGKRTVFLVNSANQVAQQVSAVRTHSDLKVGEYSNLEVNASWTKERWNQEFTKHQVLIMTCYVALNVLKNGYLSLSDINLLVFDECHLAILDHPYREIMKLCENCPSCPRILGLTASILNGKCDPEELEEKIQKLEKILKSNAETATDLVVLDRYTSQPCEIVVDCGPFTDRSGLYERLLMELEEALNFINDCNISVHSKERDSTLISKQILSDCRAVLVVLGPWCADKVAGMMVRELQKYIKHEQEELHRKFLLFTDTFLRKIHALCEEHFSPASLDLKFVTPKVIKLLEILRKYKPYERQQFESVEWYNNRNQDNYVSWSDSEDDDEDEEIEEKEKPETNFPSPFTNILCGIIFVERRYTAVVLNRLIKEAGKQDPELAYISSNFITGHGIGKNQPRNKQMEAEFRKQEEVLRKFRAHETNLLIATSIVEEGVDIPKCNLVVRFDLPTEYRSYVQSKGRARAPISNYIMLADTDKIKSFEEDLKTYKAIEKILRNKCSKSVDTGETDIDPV

[5] = target: T6, MBP-ATPase/hel domain of human Dicer with a C-terminal hemagglutinin (HA) epitope tag (human, UniProt Q9UPY3 1-604); test: co-IP
T6 sequence (looked up): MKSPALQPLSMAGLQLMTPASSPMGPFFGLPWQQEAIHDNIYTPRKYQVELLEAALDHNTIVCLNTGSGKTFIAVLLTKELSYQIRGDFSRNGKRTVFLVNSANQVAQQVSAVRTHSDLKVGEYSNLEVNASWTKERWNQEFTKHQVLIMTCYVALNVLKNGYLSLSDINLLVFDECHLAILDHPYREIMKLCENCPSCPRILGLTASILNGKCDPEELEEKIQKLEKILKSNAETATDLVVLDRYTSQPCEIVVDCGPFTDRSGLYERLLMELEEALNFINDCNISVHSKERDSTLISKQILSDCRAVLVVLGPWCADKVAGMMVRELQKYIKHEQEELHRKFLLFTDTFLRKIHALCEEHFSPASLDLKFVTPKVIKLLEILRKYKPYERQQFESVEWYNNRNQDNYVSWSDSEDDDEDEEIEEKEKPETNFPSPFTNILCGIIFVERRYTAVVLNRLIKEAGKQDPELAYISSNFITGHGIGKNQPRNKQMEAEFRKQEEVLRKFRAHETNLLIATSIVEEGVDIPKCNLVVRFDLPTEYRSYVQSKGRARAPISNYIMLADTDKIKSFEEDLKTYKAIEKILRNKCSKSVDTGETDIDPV

binding result [1]: binds
B1: human Dicer DUF283-PAZ fragment (DP: 605-1068) (domain or fragment, UniProt Q9UPY3 605-1068, looked up)
chain: MDDDDVFPPYVLRPDDGGPRVTINTAIGHINRYCARLPSDPFTHLAPKCRTRELPDGTFYSTLYLPINSPLRASIVGPPMSCVRLAERVVALICCEKLHKIGELDDHLMPVGKETVKYEEELDLHDEEETSVPGRPGSTKRRQCYPKAIPECLRDSYPRPDQPCYLYVIGMVLTTPLPDELNFRRRKLYPPEDTTRCFGILTAKPIPQIPHFPVYTRSGEVTISIELKKSGFMLSLQMLELITRLHQYIFSHILRLEKPALEFKPTDADSAYCVLPLNVVNDSSTLDIDFKFMEDIEKSEARIGIPSTKYTKETPFVFKLEDYQDAVIIPRYRNFDQPHRFYVADVYTDLTPLSKFPSPEYETFAEYYKTKYNLDLTNLNQPLLDVDHTSSRLNLLTPRHLNQKGKALPLSSAEKRKAKWESLQNKQILVPELCAIHPIPASLWRKAVCLPSILYRLHCLLTAE

B2: 37ab (dsRNA)
RNA 1: UGAGGUAGUAGGUUGUAUAGUUUGAAAGUUCACGAUU
RNA 2: UCGUGAACUUUCAAACUAUACAACCUACUACCUCAUU
Kd (DP (DUF283-PAZ)): 200 ± 34 nM
Kd (MBP-ATPase/hel): 476 ± 30 nM
Kd [2]: 300 ± 40 nM
Kd [3]: 53 ± 8 nM

B3: pre-hlet-7a-1 (structured_RNA)
RNA: UGAGGUAGUAGGUUGUAUAGUUUUAGGGUCACACCCACCACUGGGAGAUAACUAUACAAUCUACUGUCUUACC
Kd (DP (DUF283-PAZ)): ~1000 nM
Kd (MBP-ATPase/hel): 96 ± 10 nM
Kd [3]: 39 ± 5 nM

B4: 21ab (siRNA/product mimic) (dsRNA)
RNA 1: UAUACAAUGUGCUAGCUUUCU
RNA 2: AAAGCUAGCACAUUGUAUAGU
Kd (DP (DUF283-PAZ)): 220 ± 40 nM
Kd [3]: 144 ± 23 nM

B5: human TAR-RNA binding protein (hTRBP), the larger isoform TRBP2 (natural protein, UniProt Q15633-1 1-366, looked up)
chain: MSEEEQGSGTTTGCGLPSIEQMLAANPGKTPISLLQEYGTRIGKTPVYDLLKAEGQAHQPNFTFRVTVGDTSCTGQGPSKKAAKHKAAEVALKHLKGGSMLEPALEDSSSFSPLDSSLPEDIPVFTAAAAATPVPSVVLTRSPPMELQPPVSPQQSECNPVGALQELVVQKGWRLPEYTVTQESGPAHRKEFTMTCRVERFIEIGSGTSKKLAKRNAAAKMLLRVHTVPLDARDGNEVEPDDDHFSIGVGSRLDGLRNRGPGCTWDSLRNSVGEKILSLRSCSLGSLGALGPACCRVLSELSEEQAFHVSYLDIEELSLSGLCQCLVELSTQPATVCHGSATTREAARGEAARRALQYLKIMAGSK
binding result [4]: binds
binding result [5]: binds
